T1: uncleaved full-length VEGF-C (58 kDa precursor) (Homo sapiens (Human), UniProt P49767 32-419)
T1 construct: Made by transfected 293T cells from the mammalian VEGF-C construct of Joukov et al 1997; also called VEGF-C precursor; prepro-VEGF-C
T1 sequence: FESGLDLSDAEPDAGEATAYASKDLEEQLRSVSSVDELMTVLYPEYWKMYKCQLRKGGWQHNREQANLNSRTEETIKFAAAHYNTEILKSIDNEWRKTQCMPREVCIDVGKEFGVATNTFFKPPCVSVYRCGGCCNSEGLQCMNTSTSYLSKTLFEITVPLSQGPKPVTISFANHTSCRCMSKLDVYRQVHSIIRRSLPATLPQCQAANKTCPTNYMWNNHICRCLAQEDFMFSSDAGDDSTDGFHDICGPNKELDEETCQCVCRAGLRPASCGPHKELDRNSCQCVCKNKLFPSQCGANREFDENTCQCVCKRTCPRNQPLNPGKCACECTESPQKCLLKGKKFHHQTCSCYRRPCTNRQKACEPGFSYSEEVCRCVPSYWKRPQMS


Experiments:
[1] = molecular target: human CCBE1 fused to a V5 tag (human) (UniProt Q6UXH8); test: cell-based or functional assay
[2] = molecular target: T1, uncleaved full-length VEGF-C (58 kDa …); test: Strep-Tactin pull-down of mixed 293T conditioned media (CCBE1-strepIII and full-length VEGF-C, 10 min at RT), Western blot with anti-CCBE1 antibody and anti-VEGF-C antiserum
Protocol: Co-immunoprecipitation analysis of strep-tagged CCBE1. […] Mixed media were incubated for 10 min at RT before being applied to the pull-down.

inhibition of VEGF-C processing [1] | binding result [2] | Molecule
79% | – | VEGF-C C-terminal propeptide, hexahistidine-tagged (from UniProt P49767 228-419)
43% | – | VEGF-C N-terminal propeptide, hexahistidine-tagged (from UniProt P49767 32-111)
– | no binding | CCBE1-strepIII (human CCBE1 with StrepIII-tag) (other, Secreted into 293T conditioned medium; also called strep-tagged CCBE1; not shown: StrepIII-tag (Junttila et al 2005) inserted immediately after the CCBE1 CDS) YREEPEDGDREICSESKIATTKYPCLKSSGELTTCYRKKCCKGYKFVLGQCIPEDYDVCAEAPCEQQCTDNFGRVLCTCYPGYRYDRERHRKREKPYCLDIDECASSNGTLCAHICINTLGSYRCECREGYIREDDGKTCTRGDKYPNDTGHEKSENMVKAGTCCATCKEFYQMKQTVLQLKQKIALLPNNAADLGKYITGDKVLASNTYLPGPPGLPGGQGPPGSPGPKGSPGFPGMPGPPGQPGPRGSMGPMGPSPDLSHIKQGRRGPVGPPGAPGRDGSKGERGAPGPRGSPGPPGSFDFLLLMLADIRNDITELQEKVFGHRTHSSAEEFPLPQEFPSYPEAMDLGSGDDHPRRTETRDLRAPRDFYP
